For four proteins, Km, kcat and kcat/Km results are on record in PMC10917881, “Biochemical characterization of L-asparaginase isoforms from Rhizobium etli—the boosting effect of zinc” (Frontiers in Chemistry, 2024).

Substrate in data set [1]: C=CC(N)=O
The data set can be described thus: ITC, Michaelis-Menten fit. The data set is classed as biochemical, Rhizobium etli. The settings on record: possible substrate only: heat signal, product not confirmed by Nessler, protein adduct not excluded; fit before product inhibition / inactivation. The source says:
ITC, Michaelis-Menten fit on ReAIV | after acrylamide injection into the reaction cell containing ReAIV, but not ReAV
A general note: ITC needs no label: the signal is the heat of the interaction.

Substrate in data set [2]: NC(=O)C[C@H](N)C(=O)O
The data set is described as follows: ITC multiple injection method (heat-rate). In kind it is biochemical, Rhizobium etli. The settings on record: 10 mM Tris-HCl pH 9.0, 37°C, with optimal 1 µM Zn2+ (metal cofactor). The source says:
ITC multiple injection method (heat-rate) on ReAIV

Substrate in the data set “purified protein”: NC(=O)C[C@H](N)C(=O)O
The data set is described as follows: purified protein. The settings on record: 10 mM Tris-HCl pH 9.0, 37°C, with optimal Zn2+ (metal cofactor).

Substrate in data set [3]: NC(=O)C[C@H](N)C(=O)O
The data set is described as follows: ITC multiple injection method (heat-rate). In kind it is biochemical, Rhizobium etli. The settings on record: Tris-HCl pH 9.0, 37°C. The source says: ITC multiple injection method (heat-rate) on ReAV

Setting [4] is: with optimal 2.5 µM Zn2+ (metal cofactor).

B1: ReAIV (Rhizobium etli CFN 42) (protein)
chain: MTNPVTVEVTRGLLVESRHRGAVAVVDGDGKLFFSLGDIDTAVFPRSACKAMQALPLVESGAADAYGFGDKELALACASHNGEEEHVALAASMLSRAGRNVEALECGAHWSMNQKVLIQQARSLDAPTALHNNCSGKHAGFICACCHRDIDPKGYVGYEHPLQVEIRAVMERLTGAVLGAESCGTDGCSIPTYAMPLRNLAHGFARMATGTGLEPLRAKASRRLIEACMAEPFYVAGSGRACTKLMQIAPGRIFVKTGAEGVFCAAIPEKGIGISLKSEDGATRAAEAMVAATLARFFETEETVHAALMAFAAMPMRNWNGIHVGDIRATSVFSA
notes: full length, 335 residues; N-terminal 6xHis tag cut off by TEV (pET151D); E. coli BL21 Gold (DE3); homodimer
Broadly, the Km is the substrate concentration at which the rate is half of its maximum. The term kcat denotes the maximal rate divided by the concentration of active sites. What is called kcat/Km is the turnover number divided by the Michaelis constant. Consider B1, for which, in data set [1], the Km turned out to be 5500 µM and the kcat worked out at 12.6 s⁻¹. For the same protein, in data set [2], the Km is 1500 ± 100 µM, the kcat is 770 ± 17 s⁻¹ and the kcat/Km turned out to be 526000 ± 34000 M⁻¹ s⁻¹.

B2: ReAIV (Rhizobium etli CFN 42; K137A) (protein)
chain: MTNPVTVEVTRGLLVESRHRGAVAVVDGDGKLFFSLGDIDTAVFPRSACKAMQALPLVESGAADAYGFGDKELALACASHNGEEEHVALAASMLSRAGRNVEALECGAHWSMNQKVLIQQARSLDAPTALHNNCSGAHAGFICACCHRDIDPKGYVGYEHPLQVEIRAVMERLTGAVLGAESCGTDGCSIPTYAMPLRNLAHGFARMATGTGLEPLRAKASRRLIEACMAEPFYVAGSGRACTKLMQIAPGRIFVKTGAEGVFCAAIPEKGIGISLKSEDGATRAAEAMVAATLARFFETEETVHAALMAFAAMPMRNWNGIHVGDIRATSVFSA
On to B2, for which, in “purified protein”, the Km is 2300 ± 100 µM, the kcat is 158 s⁻¹ and the kcat/Km was 70000 M⁻¹ s⁻¹.

B3: ReAV (Rhizobium etli CFN 42) (protein)
chain: MTPSEDFVVTDRGGIVENSHRVHAAVVDAKGRLLYALGNPTRMTLARSAAKPAQALAILETEGVAGYGFDDADIALMCASHSSEDRHIARTRAMLSKIKAEEADLRCGGHPSLSEMVNRSWIKQDFIPTAVCSNCSGKHVGMLAGARAIGAGTDGYHLPDHPMQGRVKRTVAELCDLDAGDVEWGTDGCNLPTPAFPLDRLGRIYAKLASAADGSDAGEGQSTRCAALAHIFRAMARHPEMVAGEGRYCTMLMRAFDGALVGKLGADASYAIGVRASDATRQLGTDGALGISVKIEDGNLEMLYAVVTELLERLGIGSPDVRSQLASFHHPQRVNTMGVTTGGVSFPFKLRGSKSNVDDPRLAAVAR
notes: full length, 367 residues; N-terminal 6xHis tag cut off by TEV (pET151D); E. coli BL21 Gold (DE3); homodimer
B3: in data set [3] (setting [4]), the Km was determined as 2100 ± 200 µM, the kcat worked out at 603 ± 24 s⁻¹ and the specificity constant (kcat/Km) turned out to be 294000 ± 31000 M⁻¹ s⁻¹.

B4: ReAV (Rhizobium etli CFN 42; K138A) (protein)
chain: MTPSEDFVVTDRGGIVENSHRVHAAVVDAKGRLLYALGNPTRMTLARSAAKPAQALAILETEGVAGYGFDDADIALMCASHSSEDRHIARTRAMLSKIKAEEADLRCGGHPSLSEMVNRSWIKQDFIPTAVCSNCSGAHVGMLAGARAIGAGTDGYHLPDHPMQGRVKRTVAELCDLDAGDVEWGTDGCNLPTPAFPLDRLGRIYAKLASAADGSDAGEGQSTRCAALAHIFRAMARHPEMVAGEGRYCTMLMRAFDGALVGKLGADASYAIGVRASDATRQLGTDGALGISVKIEDGNLEMLYAVVTELLERLGIGSPDVRSQLASFHHPQRVNTMGVTTGGVSFPFKLRGSKSNVDDPRLAAVAR
notes: as for B3
With B4, the Michaelis-Menten constant (Km) in data set [3] (with optimal Zn2+ (metal cofactor)) is 500 ± 100 µM.
